This is an account of results in the FLAb antibody collection.

The first data set is described as follows: melting temperature. Particulars: Circular dichroism. In general terms: Circular dichroism is the unequal absorption of left and right circularly polarised light.
Regarding “ARVDOTPRTATKETGESLTINCVLTDTSYGLSSTYWYRKNPGSSNKEQISISGRYVESVNKRTKSFSLRIKDLTVADSATYICNAYIVRGVYGIIAKDVYGDGTALTVK”, the Tm came out at 64 °C.
Same read-out and setting: under “ARVEQTPRTATKETGESLTINCVLTGGSCSLYSTSWFRKNPGTTDWERISIGGRYVESVNKGAKSFSLRIKDLTVADSATYYCKAQSCMDSRTVVLDWYEGSGTVLTVK” stands 76 °C; under “AWVDQTPRTATKETGESLTINCVLTGTSCSLYSTSWFRKNPGTTDWERISIGGRYVESVNKGAKSFSLRIKDLTVADSATYYCKAQTADTWITVVIDGYDWYDGAGTALTVK”, 59 °C.
The same measure, in the same setting: the same measure for “DVQLQESGGGLVQPGGSLRLSCAASGFLFSDTYMTWARQAPGKGLEWLGGISKDGSGTLYEDSVEGRFTISRDNAKNTLYLQMNSLKSEDTALYYCSTGALLPTRPQGQGTQVTVSS”: 51.5 °C.
Still for that read-out and setting: the same measure for “EVQLVESGGGLVQPGGSLRLSCAASGSTFSSSSVGWYRQAPGKGLELVSAITSGGSTNTADSVKGRFTISRDNSKNTLYLQMNSLRAEDTAVYYCNVAGRNWVPISRYSPGPYWGQGTLVTVSS”: 63.3 °C; for “EVQLVESGGGLVQPGGSLRLSCAASGSTFSSSSVGWYRQAPGKQRELVSAITSGGSTNTADSVKGRFTISRDNSKNTLYLQMNSLRAEDTAVYYCNVAGRNWVPISRYSPGPYWGQGTLVTVSS”: 60.9 °C; for “PRVEQTPRITTKETGESLTINCVLTGTSCNLWTATWFRKNPGTTDWERIRIGGRYVESVNKGAKSFSLRIKDLTVADSATYYCKVQFNLYCGEADWYDGAGTLLTVK”: 66 °C.
For the sequence “QLQLVESGGGLVQAGGSLRLSCAASGRTFSSATMGWFRQAPGKEREFVAAISWSGLSRYYADSVKGRFTISRDNAENTVYLQMNSLKTEDTAVYYCAADSWGCSGLGCYDARQYDVWGQGTQVTVSS”, the Tm stood at 98.2 °C.

The data set is the same for the next values; noted with them: DSF (SYPRO).
On to “DVQLQASGGGLVQAGGSLRLSCAASGSTFSIKHHGWYRRAPGNQREWVAGINSENITNVAGAVKGRFTISRDNAKNTVYLQMNSLKVEDTAVYFCYAQDNDYRFLHRFWGQGTQVTVSLEPKTPKPQ”, for which the Tm came to 52 °C.
Same read-out and setting: the same measure for “DVQLVESGGGSVQAGGSLRLSCAASGYIASINYLGWFRQAPGKEREGVAAVSPAGGTPYYADSVKGRFTVSLDNAENTVYLQMNSLKPEDTALYYCAAARQGWYIPLNSYGYNYWGQGTQVTVSS”: 74 °C.
The same measure, in the same setting: the same measure for “EVQLQASGGGLVQAGSSLRLSCAASGLTTSTLYRMGWFRQAPGKEREFVGTITWSGGSTHYPDSLKGRFTISRDDAKNTGFLQMDSLKPEDTAIYYCAARTSAGIYDPTSPPAYDSWGQGTQVTVSS”: 70 °C.
For the sequence “EVQLQASGGGLVQPGGSLRLACVASGFTLEYSAIGWFRQAPGKEREAVSRIRNRDGRAIYADSVKDRFTISRDNAKSTVYLQMDSLKPEDTATYYCGRHIGVRSSWALPSEYDYWGQGTQYIYSS”, the Tm worked out at 60 °C.
As to “EVQLQASGGGLVQPGGSLRLSCTASGSIFSINAMGWYRQTPRKERELVAAISEGGSTKYGDSVKGRFTISRDFAKNTQMVYLQMNSLKAEDTAVYYCKAQTEGPIADWGTSQYEYWGQGTQVTVSS”, the Tm is 51 °C.
For “GPHMAQVQLVESGGRLVQAGDSLRLSCAASGRTFSTSAMAWFRQAPGREREFVAAITWTVGNTILGDSVKGRFTISRDRAKNTVDLQMDNLEPEDTAVYYCSARSRGYVLSVLRSVDSYDYWGQGTQVTVS”, the Tm was found to be 53.6 °C.
For the sequence “KVQLVESGGGLVQAGGSLRLACTASGSAFSINTMGWYRRAPGKQRELVASITSSGSTTYADSVKGRFTISRDSAKNTVFLQMNSVKPEDTSVYYCNGEIQRTDYNFWGQGTQVTVSS”, the Tm came to 59.6 °C.
In the case of “QVKLEESGGGLVQAGGSLRLSCAASERTFSRYPVAWFRQAPGAEREFVAVISSTGRSTYYADSVKGRFTISRDNAKVTVYLQMNNLKREDTAVYFCAVNSKRRRLQDPNEYDYWGQGTQVTVSSGSEQKLISEEDLNHHHHHH”, the Tm turned out to be 81.6 °C.
“QVKLEESGGGLVQAGGSLRLSCAASERTFSRYPVAWFRQAPGAEREFVAVISSTGRSTYYADSVKGRFTISRDNAKVTVYLQMNNLKREDTAVYFCAVNSKRTRLQDPNEYDYWGQGTQVTVSSGSEQKLISEEDLNHHHHHH”: the Tm was 81.4 °C.
For “QVKLEESGGGLVQAGGSLRLSCAASERTFSRYPVAWFRQAPGAEREFVAVISSTGRSTYYADSVKGRFTISRDNAKVTVYLQMNNLKREDTAVYFCAVNSQRMRLQDPNEYDYWGQGTQVTVSSGSEQKLISEEDLNHHHHHH”, the Tm is 77 °C.
On to “QVKLEESGGGLVQAGGSLRLSCAASERTFSRYPVAWFRQAPGAEREFVAVISSTGTSKYYADSVKGRFTISRDNAKVTVYLQMNNLKREDTAVYFCAVNSQRTRLQDPNEYDYWGQGTQVTVSSGSEQKLISEEDLNHHHHHH”, for which the Tm was determined as 76.9 °C.
For the sequence “QVKLEESGGGLVQAGGSLRLSCAASERTFSRYPVAWFRQAPGAEREFVAVISSTGTSTYYADSVKGRFTISRDNAKVTVYLQMNNLKREDTAVYFCAVNSKRKRLQDPNEYDYWGQGTQVTVSSGSEQKLISEEDLNHHHHHH”, the Tm amounted to 81.5 °C.
With “QVKLEESGGGLVQAGGSLRLSCAASERTFSRYPVAWFRQAPGAEREFVAVISSTGTSTYYADSVKGRFTISRDNAKVTVYLQMNNLKREDTAVYFCAVNSKRMRLQDPNEYDYWGQGTQVTVSSGSEQKLISEEDLNHHHHHH”, the Tm was 81.3 °C.
The same measure, in the same setting: under “QVKLEESGGGLVQAGGSLRLSCAASERTFSRYPVAWFRQAPGAEREFVAVISSTGTSTYYADSVKGRFTISRDNAKVTVYLQMNNLKREDTAVYFCAVNSKRRRLQDPNEYDYWGQGTQVTVSSGSEQKLISEEDLNHHHHHH” stands 81.9 °C; under “QVKLEESGGGLVQAGGSLRLSCAASERTFSRYPVAWFRQAPGAEREFVAVISSTGTSTYYADSVKGRFTISRDNAKVTVYLQMNNLKREDTAVYFCAVNSKRTRLQDPNEYDYWGQGTQVTVSSGSEQKLISEEDLNHHHHHH”, 81.4 °C; under “QVKLEESGGGLVQAGGSLRLSCAASERTFSRYPVAWFRQAPGAEREFVAVISSTGTSTYYADSVKGRFTISRDNAKVTVYLQMNNLKREDTAVYFCAVNSQRKRLQDPNEYDYWGQGTQVTVSSGSEQKLISEEDLNHHHHHH”, 78.5 °C.
The same measure, in the same setting: under “QVKLEESGGGLVQAGGSLRLSCAASERTFSRYPVAWFRQAPGAEREFVAVISSTGTSTYYADSVKGRFTISRDNAKVTVYLQMNNLKREDTAVYFCAVNSQRMRLQDPNEYDYWGQGTQVTVSSGSEQKLISEEDLNHHHHHH” stands 77.4 °C.
